From publication PMC5299843

Legend:
[1] = target: recombinant LH/CG receptor (UniProt P22888)
[2] = target: recombinant LH/CG receptor (UniProt P22888); remark: listed apart in the source

Sequence of UniProt P22888 (P22888 27-699): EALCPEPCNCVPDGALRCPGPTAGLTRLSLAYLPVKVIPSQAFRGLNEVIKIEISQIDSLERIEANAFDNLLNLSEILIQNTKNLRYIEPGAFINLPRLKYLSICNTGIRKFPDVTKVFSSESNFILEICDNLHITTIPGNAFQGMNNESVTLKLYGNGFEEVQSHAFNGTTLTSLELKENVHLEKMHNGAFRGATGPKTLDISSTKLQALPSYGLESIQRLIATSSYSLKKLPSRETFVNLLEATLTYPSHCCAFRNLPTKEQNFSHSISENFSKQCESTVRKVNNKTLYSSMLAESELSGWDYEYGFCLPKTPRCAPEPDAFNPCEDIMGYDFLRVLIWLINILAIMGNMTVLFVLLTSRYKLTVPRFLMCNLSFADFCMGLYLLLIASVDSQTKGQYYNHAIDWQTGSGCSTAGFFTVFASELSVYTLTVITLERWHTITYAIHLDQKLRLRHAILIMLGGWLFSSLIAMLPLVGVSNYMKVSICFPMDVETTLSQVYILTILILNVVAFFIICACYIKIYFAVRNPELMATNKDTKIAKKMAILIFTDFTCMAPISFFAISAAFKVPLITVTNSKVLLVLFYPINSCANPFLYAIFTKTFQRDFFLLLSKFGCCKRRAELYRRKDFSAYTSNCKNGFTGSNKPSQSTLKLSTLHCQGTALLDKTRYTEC

## human recombinant chorionic gonadotropin (hCG, Ovitrelle) (from UniProt P01215 25-116; P0DN86 21-165) (ligand)
[1]
  change of FRET signal of the cAMP biosensor TEpacVV in living COS7-LHCGR cells, serial concentrations of hCG over time; concentration giving full receptor activation: 50 pM
[2]
  cAMP biosensor signal in COS7-LHCGR cells with 30 pM hCG after heat treatment of the hormone at 65 °C for 30 min; loss in active hormone concentration: 40%
